According to patent US20120014998A1:

Molecular target: GroEL (E. coli Cpn60) (E. coli) (UniProt P0A6F5)
Experiment: cell-based or functional assay

Sequence of GroEL (E. coli Cpn60) (E. coli) (P0A6F5 2-548 limits assumed): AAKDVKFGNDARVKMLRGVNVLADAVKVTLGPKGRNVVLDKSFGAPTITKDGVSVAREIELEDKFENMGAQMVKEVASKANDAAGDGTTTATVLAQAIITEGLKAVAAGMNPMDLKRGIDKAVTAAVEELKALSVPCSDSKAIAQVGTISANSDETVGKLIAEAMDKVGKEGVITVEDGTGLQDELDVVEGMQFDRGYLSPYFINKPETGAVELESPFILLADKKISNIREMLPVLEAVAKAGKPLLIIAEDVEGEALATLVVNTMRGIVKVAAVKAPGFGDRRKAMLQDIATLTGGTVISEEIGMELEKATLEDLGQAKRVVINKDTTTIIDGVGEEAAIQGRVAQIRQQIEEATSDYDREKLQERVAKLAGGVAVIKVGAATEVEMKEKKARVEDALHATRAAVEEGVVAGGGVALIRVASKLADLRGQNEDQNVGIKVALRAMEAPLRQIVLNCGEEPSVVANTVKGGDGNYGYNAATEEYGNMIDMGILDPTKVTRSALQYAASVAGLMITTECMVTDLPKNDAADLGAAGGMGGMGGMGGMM
Sequence of Gly-Cpn10 (P61604 other isoform, or with tags, fused parts or gaps limits assumed): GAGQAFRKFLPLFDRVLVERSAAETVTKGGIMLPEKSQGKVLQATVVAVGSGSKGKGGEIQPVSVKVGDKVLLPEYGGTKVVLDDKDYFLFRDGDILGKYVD
Sequence of Ala-Cpn10-cHis (P61604 other isoform, or with tags, fused parts or gaps limits assumed): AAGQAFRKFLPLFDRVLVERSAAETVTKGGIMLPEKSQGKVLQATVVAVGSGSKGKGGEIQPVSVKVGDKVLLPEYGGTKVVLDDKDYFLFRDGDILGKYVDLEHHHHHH
Sequence of Ala-Cpn10 (Wild type Cpn10) (P61604 other isoform, or with tags, fused parts or gaps limits assumed): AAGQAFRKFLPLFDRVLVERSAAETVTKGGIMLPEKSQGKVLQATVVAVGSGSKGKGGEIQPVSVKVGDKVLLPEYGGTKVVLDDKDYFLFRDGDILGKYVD
Sequence of X-Cpn10 (i.e. non-acetylated) (P61604 2-102 limits assumed): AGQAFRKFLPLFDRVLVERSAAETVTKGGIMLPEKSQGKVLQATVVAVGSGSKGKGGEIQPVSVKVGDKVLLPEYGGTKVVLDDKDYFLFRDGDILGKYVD

Row | Substance | Refolding activity (% of Ala-Cpn10) (% of Ala-Cpn10)
1 | Cpn10-NtermES (from UniProt P61604 11-102) | 12
2 | X-Cpn10 (i.e. non-acetylated) (from UniProt P61604 2-102) | 105
3 | Ala-Cpn10-cHis (from UniProt P61604 2-102) | 40
4 | Gly-Cpn10 (from UniProt P61604 2-102) | 107
5 | Ala-Cpn10 (Wild type Cpn10) (from UniProt P61604 2-102) | 100
